For this assay, the target named is MobK-6His (Klebsiella pneumoniae (plasmid pIGRK)). Nature of the assay: cross-linking; about 400 ng MobK-6His incubated with increasing glutaraldehyde (0%, 0.001%, 0.0025%, 0.005%, 0.025%, 0.05%); SDS-PAGE and Western blot with anti-6His antibody; monomer to dimer. Background: Immunoblotting shows a protein as a band on a membrane.

Regarding MobK-6His (enzyme), the stoichiometry N was determined as 2.

One may read the stoichiometry N as the number of molecules, sites or subunits per partner or assembly.

Source of the values: article PMC8152469.
